Source: US20240251767A1 (LEVERAGEN, published 2024)
Read-outs that look alike come from different tables or passages of the source.

B1: M2S521_378 Nb-human Fc fusion (Fc fusion, not shown: a dimerising Fc or GST)
VH: EVQLQQSGPELVKPGASVKISCKASGYTFTDYYMKWVKQSHGKSLEWIGDINPKNGGTNYNQKFKDKATLTVDKSSSTAYMELRSLTSEDSAVYYCARLEDGYYGYAIDYWSQGTSVTVSS
notes: also called LVGN-S231378; LVGN-S521378
B2: MS329_5 Nb-human Fc fusion (Fc fusion, not shown: a dimerising Fc or GST)
VH: EVQLQQSGPELVKPGASVKMSCKASGYTFTDYYIKWEKQSHGKSLEWIGDINPKNGETFYNQQFKGKATLTVDKSSSTAYMQLNSLTSEDSAVYYCARKEYGDYGYAVDYWGQGTSVTVSS
notes: also called LVGN-S3205; LVGN-53205

Key:
[1] = target: T1, SARS-Cov2 Spike Active Trimer SAT (R&D Systems; Catalog No. 10549-CV) (SARS-CoV2, UniProt P0DTC2 16-1211); assay: ELISA, serially diluted purified Nb-Fc on SAT antigen
T1 construct: also called SARS-CoV2 Spike Active Trimer protein; recombinant SAT protein

[2] = target: T1, SARS-Cov2 Spike Active Trimer SAT (R&D …)
[3] = target: T1, SARS-Cov2 Spike Active Trimer SAT (R&D …); assay: SPR (Carterra)
[4] = target: T1, SARS-Cov2 Spike Active Trimer SAT (R&D …)

Binder | EC50 [1] [nM] | Kd [2] [nM] | koff [2] [s⁻¹] | kon [2] [M⁻¹ s⁻¹] | Kd [3] [nM] | Kd [4] [nM]
B1 | 0.081 | – | – | – | – | –
B2 | 0.024 | 1.06 | 0.000143 | 135000 | 3.17 | 1.21
